This note sets out measurements from IntAct's records for PubMed 16648636.

B1: Monothiol glutaredoxin-4 (Saccharomyces cerevisiae), P32642 (parent)
chain: MTVVEIKSQDQFTQLTTTNAANKLIVLYFKAQWADPCKTMSQVLEAVSEKVRQEDVRFLSIDADEHPEISDLFEIAAVPYFVFIQNGTIVKEISAADPKEFVKSLEILSNASASLANNAKGPKSTSDEESSGSSDDEEDETEEEINARLVKLVQAAPVMLFMKGSPSEPKCGFSRQLVGILREHQIRFGFFDILRDENVRQSLKKFSDWPTFPQLYINGEFQGGLDIIKESIEEDPEYFQHALQ
partner: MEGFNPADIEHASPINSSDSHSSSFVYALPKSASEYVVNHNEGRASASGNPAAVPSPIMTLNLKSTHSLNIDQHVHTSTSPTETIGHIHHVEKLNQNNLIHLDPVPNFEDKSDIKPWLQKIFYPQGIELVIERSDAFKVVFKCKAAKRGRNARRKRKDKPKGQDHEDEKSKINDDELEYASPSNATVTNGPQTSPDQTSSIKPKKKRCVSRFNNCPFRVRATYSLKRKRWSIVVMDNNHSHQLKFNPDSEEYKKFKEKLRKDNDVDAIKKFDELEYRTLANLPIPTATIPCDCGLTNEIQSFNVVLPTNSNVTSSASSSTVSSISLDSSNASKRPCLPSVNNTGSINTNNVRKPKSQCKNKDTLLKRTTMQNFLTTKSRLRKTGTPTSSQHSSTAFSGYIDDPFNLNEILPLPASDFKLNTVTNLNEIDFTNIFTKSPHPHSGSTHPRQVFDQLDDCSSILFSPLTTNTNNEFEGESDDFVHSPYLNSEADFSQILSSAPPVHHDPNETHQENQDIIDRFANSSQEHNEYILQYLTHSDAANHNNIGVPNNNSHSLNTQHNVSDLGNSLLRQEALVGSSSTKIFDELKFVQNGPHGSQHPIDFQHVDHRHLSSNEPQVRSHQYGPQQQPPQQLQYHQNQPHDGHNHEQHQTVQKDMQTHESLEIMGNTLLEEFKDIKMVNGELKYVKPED
B2: Monothiol glutaredoxin-3 (Saccharomyces cerevisiae), Q03835 (parent)
chain: MPVIEINDQEQFTYLTTTAAGDKLIVLYFHTSWAEPCKALKQVFEAISNEPSNSNVSFLSIDADENSEISELFEISAVPYFIIIHKGTILKELSGADPKEYVSLLEDCKNSVNSGSSQTHTMENANVNEGSHNDEDDDDEEEEEETEEQINARLTKLVNAAPVMLFMKGSPSEPKCGFSRQLVGILREHQVRFGFFDILRDESVRQNLKKFSEWPTFPQLYINGEFQGGLDIIKESLEEDPDFLQHALQS
partner: B1 partner

In one assay the parent is B1. The conditions noted are these: with aft1_yeast AFT1, P22149.
On to C171S, for which the “effect of a mutation on the interaction” value is reported as “disrupting interaction”.

Another assay covers variants of B2. As to conditions: with aft1_yeast AFT1, P22149.
C176S: the “effect of a mutation on the interaction” value is “disrupting interaction”.
